Results reported in paper PMC8585765, “An OsKala3, R2R3 MYB TF, Is a Common Key Player for Black Rice Pericarp as Main Partner of an OsKala4, bHLH TF” (Frontiers in Plant Science, 2021).

Target: T1, OsKala4 (rice (Oryza sativa), UniProt Q948Y2 1-451)
T1 sequence (looked up): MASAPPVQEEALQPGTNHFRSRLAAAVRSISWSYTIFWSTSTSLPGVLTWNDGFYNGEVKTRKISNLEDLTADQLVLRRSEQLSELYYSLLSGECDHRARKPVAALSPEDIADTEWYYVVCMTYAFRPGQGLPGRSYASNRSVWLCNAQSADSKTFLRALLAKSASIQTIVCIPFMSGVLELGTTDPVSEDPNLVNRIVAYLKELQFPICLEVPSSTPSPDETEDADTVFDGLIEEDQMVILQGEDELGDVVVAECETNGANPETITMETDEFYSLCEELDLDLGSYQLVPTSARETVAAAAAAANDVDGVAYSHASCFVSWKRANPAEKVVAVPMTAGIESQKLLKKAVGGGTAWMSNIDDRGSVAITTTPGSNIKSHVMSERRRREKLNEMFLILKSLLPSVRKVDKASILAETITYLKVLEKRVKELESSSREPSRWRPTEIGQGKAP
Test: cell-based or functional assay

dual-luciferase reporter assay in transiently transfected rice protoplasts; proOsCHI:LUC reporter; co-transfection of OsKala3 and OsKala4 compared to OsKala3 alone: 4 fold
B1: OsKala3 (natural protein, rice (Oryza sativa), UniProt O23891 1-321, looked up)
chain: MGRKPCCSKEGLNRGAWTAMEDDILVSYIAKHGEGKWGALPKRAGLKRCGKSCRLRWLNYLRPGIKRGNISGDEEELILRLHTLLGNRWSLIAGRLPGRTDNEIKNYWNSTLSKRVAMQRTAAATSMPAAATTSSNADAAGAAARRRRSPEPRTVVVSPIRTKALRCNNNSSSGIVVVQQAGACSHGGRPPESGAPGDAAADKVATPQAVQQQQQQELAGAEDDDDLPVPAVCIDLDLDDIELGGLDGFLISPWRGGGHDDGNAAAGAVPNLPMPIGYKLGGAGGGGEAGAVDLEALLGQLEAEEDDDGDHHHHHHHHHHQ
